The record followed here is patent US20070036786A1 (published 2007).

Numbering of substitutions follows the chain as printed.

In this experiment the target is T1, soluble human CD16A (sCD16A) (human, UniProt P08637 17-203).
T1 construct: CD16A truncated just prior to the transmembrane region, expressed in HEK-293; The last seven residues come from vector pCDNA3.1; also called soluble form of human CD16A
Kind of experiment: ELISA, captured sCD16A. The method, then: The plate was washed and dilutions of recombinant antibodies starting at 0.5 μg/ml in PBS-T-BSA were then added and incubated for 1 hr at room temp. Binding of recombinant antibodies to the captured sCD16A was then measured using an anti-human IgG-HRP conjugate and TMB substrate. After stopping color development using dilute sulfuric acid, the plate was read at 450 nm.
For orientation: ELISA stands for enzyme-linked immunosorbent assay.

T1 sequence (P08637 other isoform, or with tags, fused parts or gaps limits assumed): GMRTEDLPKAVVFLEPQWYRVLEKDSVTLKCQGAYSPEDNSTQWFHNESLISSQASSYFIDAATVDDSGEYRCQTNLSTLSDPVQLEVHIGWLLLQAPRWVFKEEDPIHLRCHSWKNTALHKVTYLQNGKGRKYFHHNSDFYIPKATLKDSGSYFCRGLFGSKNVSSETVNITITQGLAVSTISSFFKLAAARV

B1: chimeric 3G8 antibody (ch3G8VH/ch3G8VL) (antibody, V domains shown)
VH: QVTLKESGPGILQPSQTLSLTCSFSGFSLRTSGMGVGWIRQPSGKGLEWLAHIWWDDDKRYNPALKSRLTISKDTSSNQVFLKIASVDTADTATYYCAQINPAWFAYWGQGTLVTVSS
VL: DTVLTQSPASLAVSLGQRATISCKASQSVDFDGDSFMNWYQQKPGQPPKLLIYTTSNLESGIPARFSASGSGTDFTLNIHPVEEEDTATYYCQQSNEDPYTFGGGTKLEIK
notes: Mouse 3G8 variable domains (VH FR4 ala to ser) on human Cγ1 and Cκ constant regions; also called ch3G8-γ1
As to B1, the binding result was “binds”.

B2: hu3G8VH-24/hu3G8VL-1 (antibody)
VH: QVTLRESGPALVKPTQTLTLTCTFSGFSLSTSGVGVGWIRQPPGKALEWLAHIWWDDDKRYSPSLKSRLTISKDTSKNQVVLTMTNMDPVDTATYYCAAINPAYFAYWGQGTLVTVSS
light: DIVMTQSPDSLAVSLGERATINCKASQSVDFDGDSFMNWYQQKPGQPPKLLIYTTSNLESGVPDRFSGSGSGTDFTLTISSLQAEDVAVYYCQQSNEDPYTFGQGTKLEIKRTVAAPSVFIFPPSDEQLKSGTASVVCLLNNFYPREAKVQWKVDNALQSGNSQESVTEQDSKDSTYSLSSTLTLSKADYEKHKVYACEVTHQGLSSPVTKSFNRGEC
notes: VH fused to human Cγ1 constant region
Regarding B2, the binding result is given as “binds”.

B3: hu3G8VH-22/hu3G8VL-1 (antibody)
VH: QVTLRESGPALVKPTQTLTLTCTFSGFSLSTSGVGVGWIRQPPGKALEWLAHIWWDDDKRYSPSLKSRLTISKDTSKNQVVLTMTNMDPVDTATYYCARINPAYFAYWGQGTLVTVS
light: B2 light
notes: VH fused to human Cγ1 constant region (glycosylated form)
For B3, the binding result is “binds”.

B4: hu3G8VH-25/hu3G8VL-1 (antibody)
VH: B2 VH with A99H
light: B2 light
notes: as for B2
Consider B4, for which the binding result is “binds”.

B5: hu3G8VH-45/hu3G8VL-1 (antibody)
VH: B2 VH with V2I, R5K, A10T, S72T, A99Q, A106D
light: B2 light
notes: as for B2
Consider B5, for which the binding result is on record as “binds”.

B6: hu3G8VH-43/hu3G8VL-1 (antibody)
VH: B2 VH with V2I, R5K, A10T, S72T, A99R
light: B2 light
notes: as for B2
In the case of B6, the binding result is recorded as “binds”.

B7: hu3G8VH-40/hu3G8VL-1 (antibody)
VH: B2 VH with V2I, R5K, A10T, W54F, A99R, Y104W
light: B2 light
notes: as for B2
As to B7, the binding result was “binds”.

B8: hu3G8VH-42/hu3G8VL-1 (antibody)
VH: B2 VH with V2I, R5K, A10T, S72T, A99R, Y104W
light: B2 light
notes: as for B2
With B8, the binding result is listed as “binds”.

B9: hu3G8VH-34/hu3G8VL-1 (antibody)
VH: B2 VH with V2I, R5K, A10T, A99R
light: B2 light
notes: as for B2
Consider B9, for which the binding result is “binds”.

B10: hu3G8VH-36/hu3G8VL-1 (antibody)
VH: B2 VH with V2I, R5K, A10T, H52L, A99Q, A106D
light: B2 light
notes: as for B2
With B10, the binding result is “binds”.

B11: hu3G8VH-28/hu3G8VL-1 (antibody)
VH: B2 VH with A106D
light: B2 light
notes: as for B2
In the case of B11, the binding result is on record as “binds”.

B12: hu3G8VH-31/hu3G8VL-1 (antibody)
VH: B2 VH with V2I, R5K, A10T, A99R, Y104W
light: B2 light
notes: as for B2
With B12, the binding result is given as “binds”.

B13: hu3G8VH-29/hu3G8VL-1 (antibody)
VH: B2 VH with A99H, A106D
light: B2 light
notes: as for B2
B13: the binding result is listed as “binds”.

B14: hu3G8VH-44/hu3G8VL-1 (antibody)
VH: B2 VH with V2I, R5K, A10T, S72T, A99H, A106D
light: B2 light
notes: as for B2
As to B14, the binding result was “binds”.

B15: hu3G8VH-35/hu3G8VL-1 (antibody)
VH: B2 VH with V2I, R5K, A10T, A99Q
light: B2 light
notes: as for B2
In the case of B15, the binding result is listed as “binds”.

B16: hu3G8VH-37/hu3G8VL-1 (antibody)
VH: B2 VH with V2I, R5K, A10T, H52L, A99K
light: B2 light
notes: as for B2
On to B16, for which the binding result is “binds”.

B17: hu3G8VH-27/hu3G8VL-1 (antibody)
VH: B2 VH with A99K, A106D
light: B2 light
notes: as for B2
B17: the binding result was “binds”.

B18: hu3G8VH-30/hu3G8VL-1 (antibody)
VH: B2 VH with A99Q, A106D
light: B2 light
notes: as for B2
Regarding B18, the binding result is given as “binds”.

B19: hu3G8VH-26/hu3G8VL-1 (antibody)
VH: B2 VH with A99Q
light: B2 light
notes: as for B2
Regarding B19, the binding result is “binds”.
